What all share (assay type): cell-based
The test system of data set [1] is EGFP expression. Kind of data set: GFP fluorescence of HEK 293 cells transfected with pEGFP riboswitch constructs, treated with guanine. The note with it: 500 μM guanine vs NaOH solvent control. The protocol: (§1) Transfection and aptamer ligand treatment: 3.5×10^4 HEK 293 cells were plated in a 96-well flat bottom plate the day before transfection. Plasmid DNA (500 ng) was added to a tube or a 96-well U-bottom plate. Separately, TransIT-293 reagent (Minis; 1.4 μl) was added to 50 μl opti-mem I media (Life Technologies), and allowed to sit for 5 minutes at room temperature (“RT”). Then, 50 μl of this diluted transfection reagent was added to the DNA, mixed, and incubated at RT for 20 min. Finally, 7 μl of this solution was added to a well of cells in a 96-well plate. Four hours after transfection, the media was aspirated, and new media was added with (i) DMSO (0.5%) or 500 μM guanosine; or (ii) NaOH (2 mM) as solvent control or 500 μM guanine. The induction fold was expressed as the quotient of luciferase activity obtained in the presence of aptamer ligand divided by the value obtained in the absence of the aptamer ligand.
Transfection and measurement of GFP fluorescence: 3.5×10^4 HEK 293 cells were plated in 96-well flat bottom plate the day before transfection. […] GFP fluorescence intensity was measured by Tecan plate reader, using Excitation wavelength at 484 nm, Emission wavelength at 510 nm and Excitation bandwidth at 5 nm. The GFP fluorescence intensity was expressed as the value generated by GFP constructs subtracted by the value generated by cells without transfection.

The test system of data set [2] is luciferase expression. In words: Firefly luciferase assay of HEK 293 cells transfected with riboswitch constructs, treated with guanosine or guanine. The note with it: absence of guanine treatment. The procedure:
as §1
(§2) Firefly luciferase assay of cultured cells: Twenty-four hours after media change, plates were removed from the incubator, and equilibrated to RT for several minutes on a lab bench, then aspirated. Glo-lysis buffer (Promega, […]) was added, and the plates allowed to remain at RT for at least 5 minutes. Then, the well contents were mixed by 50 μL trituration, and 20 μL of each sample was mixed with 20 μL of bright-glo reagent (Promega) that had been diluted to 10% in glo-lysis buffer. 96 wells were spaced on an opaque white 384-well plate. Following a 5-min incubation at RT, luminescence was measured using Tecan machine with 500 mSec read time. The luciferase activity was expressed as mean relative light unit (RLU)±S.D.

Data set [3] concerns luciferase expression. Kind of data set: Firefly luciferase assay of HEK 293 cells transfected with adenine aptamer construct, treated with adenine. The protocol: as §1, §2
Four hours after transfection, the media was aspirated, and new media with NaOH (1 mM) or 1 mM adenine (Calbiochem) was added. The induction fold was expressed as the quotient of luciferase activity obtained in the presence of aptamer ligand divided by the value obtained in the absence of the aptamer ligand.

Here are results for three molecules from patent US20200010836A1, “Regulation of Gene Expression by Aptamer-Mediated Accessibility of Polyadenylation Signals” (MEIRAGTX, UK II Limited, priority 2017, published 2020).

B1: ATA_Gua_4: SEQ ID NO: 4; xpt-guanine aptamer linked to 14 bp stem-loop embedding AATAAA; also used in pEGFP vector (nucleic acid)
DNA: AAGGCCAAGAAGGGCGGAAAGATCGCCGTGTAAGCCATACCACATTTGTAGAGGTTTTACTTGCTTTAAAAAACCTCCCACACCTCCCCCTGAACCTGAAACATAAAATGAATGCAATTGTTGTTGTTAACTTGTTTATTGCAGCTTATAATGGTTACAAATAAAGCAATAGCATCACAAATTTTAAAGCAATAATCGCGTGGATATGGCACGCAAGTTTCTACCGGGCACCGTAAATGTCCGACTTGCTTTATTTGTGCGAAAGCACAAATAAAGCATTTTTTTCACTGCATTCTAGTTGTGGTTTGTCCAAACTCATCAATGTATCTTAACGCGT
For the molecule B1, in data set [1], the “fold increase in GFP expression on guanine treatment” value is 1.6 fold. Also, the “basal level luciferase expression, % of the pFLuc control vector” value in data set [2] amounted to 16%.

B2: ATA_Gua_2: SEQ ID NO: 2; xpt-guanine aptamer linked to 10 bp stem-loop embedding AATAAA; also used in pEGFP vector (nucleic acid)
DNA: AAGGCCAAGAAGGGCGGAAAGATCGCCGTGTAAGCCATACCACATTTGTAGAGGTTTTACTTGCTTTAAAAAACCTCCCACACCTCCCCCTGAACCTGAAACATAAAATGAATGCAATTGTTGTTGTTAACTTGTTTATTGCAGCTTATAATGGTTACAAATAAAGCAATAGCATCACAAATTTCACATAAAGCATAATCGCGTGGATATGGCACGCAAGTTTCTACCGGGCACCGTAAATGTCCGACTGCTTTATTTCGAAAGAAATAAAGCATTTTTTTCACTGCATTCTAGTTGTGGTTTGTCCAAACTCATCAATGTATCTTAACGCGT
Turning to B2, the “fold increase in GFP expression on guanine treatment” value in data set [1] is reported as 1.5 fold.

B3: ATA_Ydhl: SEQ ID NO: 17; adenine aptamer ydhl-A linked to 9 bp TTCG stem-loop embedding AATAAA, P1 stem 10 bp (nucleic acid)
DNA: AAGGCCAAGAAGGGCGGAAAGATCGCCGTGTAAGCCATACCACATTTGTAGAGGTTTTACTTGCTTTAAAAAACCTCCCACACCTCCCCCTGAACCTGAAACATAAAATGAATGCAATTGTTGTTGTTAACTTGTTTATTGCAGCTTATAATGGTTACAAATAAAGCAATAGCATCACAAATTTCAATAAAGGTATAACCTCAATAATATGGTTTGAGGGTGTCTACCAGGAACCGTAAAATCCTGATTACCTTTATTTCTTCGGAAATAAAGCATTTTTTTCACTGCATTCTAGTTGTGGTTTGTCCAAACTCATCAATGTATCTTAACGCGT
For the molecule B3, the “luciferase expression in the presence of adenine, % of the control pFLuc construct in the presence of adenine” value in data set [3] (1 mM adenine) was “approximately 82%”. Also, in data set [3] (1 mM adenine vs NaOH solvent control), the “fold increase in luciferase expression on adenine treatment” value was found to be 4.0 fold. The “luciferase level in the absence of adenine, % of the control pFLuc construct” value in data set [3] (absence of adenine treatment) was “approximately 52%”.
